Experimental data: the Immune Epitope Database (IEDB)

How the values were obtained:
[1] = target: HLA-A*11:01; experiment: IEDB peptide-MHC binding, cellular MHC/competitive/fluorescence; ≥ and ≤ were set here for values at or beyond the usual limits of such assays; conditions: source organism: Hepatitis B virus
[2] = target: HLA-A*68:01; experiment: as above; conditions: source organism: Hepatitis B virus
[3] = target: HLA-A*68:02; experiment: as above
[4] = target: HLA-A*02:03; experiment: IEDB peptide-MHC binding, purified MHC/competitive/radioactivity; ≥ and ≤ were set here for values at or beyond the usual limits of such assays
[5] = target: HLA-A*03:01; experiment: as above; conditions: source organism: Hepatitis B virus
[6] = target: HLA-A*02:02; experiment: as above
[7] = target: HLA-A*31:01; experiment: as above
[8] = target: HLA-A*02:01; experiment: as above
[9] = target: HLA-A*02:06; experiment: as above
[10] = target: HLA-A*03:01; experiment: IEDB peptide-MHC binding, cellular MHC/competitive/fluorescence; ≥ and ≤ were set here for values at or beyond the usual limits of such assays; conditions: source organism: Hepatitis B virus
[11] = target: HLA-A*24:02; experiment: as above; conditions: source organism: Vaccinia virus WR
[12] = target: HLA-A*23:01; experiment: as above; conditions: source organism: Vaccinia virus WR
[13] = target: HLA-A*01:01; experiment: as above; conditions: source organism: Vaccinia virus WR
[14] = target: HLA-A*29:02; experiment: as above; conditions: source organism: Vaccinia virus WR
[15] = target: HLA-A*26:01; experiment: as above; conditions: source organism: Vaccinia virus WR
[16] = target: HLA-A*30:02; experiment: as above; conditions: source organism: Vaccinia virus WR
[17] = target: HLA-A*68:02; experiment: IEDB peptide-MHC binding, purified MHC/competitive/radioactivity; ≥ and ≤ were set here for values at or beyond the usual limits of such assays
[18] = target: HLA-A*31:01; experiment: IEDB peptide-MHC binding, cellular MHC/competitive/fluorescence; ≥ and ≤ were set here for values at or beyond the usual limits of such assays; conditions: source organism: Hepatitis B virus
[19] = target: HLA-A*02:03; experiment: as above; conditions: source organism: Vaccinia virus WR
[20] = target: HLA-A*02:02; experiment: as above; conditions: source organism: Vaccinia virus WR
[21] = target: HLA-A*02:01; experiment: as above; conditions: source organism: Vaccinia virus WR
[22] = target: HLA-A*02:06; experiment: as above; conditions: source organism: Vaccinia virus WR
[23] = target: HLA-A*68:01; experiment: IEDB peptide-MHC binding, purified MHC/competitive/radioactivity; ≥ and ≤ were set here for values at or beyond the usual limits of such assays; conditions: source organism: Hepatitis B virus
[24] = source organism: Hepatitis B virus
[25] = source organism: Vaccinia virus WR

Sequence | IC50 [1] [nM] | IC50 [2] [nM] | IC50 [3, 24] [nM] | IC50 [4, 24] [nM] | IC50 [5] [nM] | IC50 [6, 24] [nM] | IC50 [7, 24] [nM] | IC50 [8, 24] [nM] | IC50 [9, 24] [nM] | also measured
CLIFLLVLL | 35700 | 34900 | 7100 | 659 | 682 | 1520 | 998 | 101 | 1040 | 
KQYLNLYPV | 30400 | ≥ 70000 | 36800 | 4.5 |  | 224 | 189 | 138 | 11 | IC50 [10]: ≥ 70000 nM
CQCTVQEFI |  |  |  |  |  |  |  |  |  | IC50 [11]: 29000 nM; IC50 [12]: 44500 nM; IC50 [13]: 28500 nM; IC50 [14]: 20500 nM; IC50 [15]: 24800 nM; IC50 [16]: ≥ 70000 nM; IC50 [4, 25]: 4790 nM; IC50 [6, 25]: 2050 nM; IC50 [8, 25]: 2200 nM; IC50 [9, 25]: 1130 nM; IC50 [17, 25]: 1730 nM
LLPIFFCLWV | ≥ 70000 | 51000 | ≥ 70000 | 15 | 1330 |  |  |  | 2.3 | IC50 [18]: 6230 nM
SLYADSPSV | ≥ 70000 | ≥ 70000 | 13700 | 3.4 | 2020 | 12 |  |  | 883 | IC50 [18]: 14600 nM
EQRRSTIFDI |  |  |  |  |  |  |  |  |  | IC50 [19]: 11400 nM; IC50 [11]: ≥ 70000 nM; IC50 [12]: 50800 nM; IC50 [20]: 23000 nM; IC50 [13]: 17700 nM; IC50 [14]: ≥ 70000 nM; IC50 [21]: 22500 nM; IC50 [15]: ≥ 70000 nM; IC50 [22]: 25500 nM; IC50 [16]: ≥ 70000 nM; IC50 [17, 25]: 1030 nM
TQVKELGIAI |  |  |  |  |  |  |  |  |  | IC50 [11]: ≥ 70000 nM; IC50 [12]: 38600 nM; IC50 [13]: ≥ 70000 nM; IC50 [14]: ≥ 70000 nM; IC50 [15]: 49600 nM; IC50 [16]: ≥ 70000 nM; IC50 [4, 25]: 704 nM; IC50 [6, 25]: 2170 nM; IC50 [8, 25]: 1760 nM; IC50 [9, 25]: 3.9 nM; IC50 [17, 25]: 1180 nM
KLYIALCKV |  |  |  |  |  |  |  |  |  | IC50 [3, 25]: 16600 nM; IC50 [4, 25]: 1.4 nM; IC50 [6, 25]: 16 nM; IC50 [7, 25]: 739 nM; IC50 [8, 25]: 6.7 nM; IC50 [9, 25]: 97 nM
QQFANVISKI |  |  |  |  |  |  |  |  |  | IC50 [11]: ≥ 70000 nM; IC50 [12]: 12200 nM; IC50 [13]: ≥ 70000 nM; IC50 [14]: ≥ 70000 nM; IC50 [21]: 7320 nM; IC50 [15]: ≥ 70000 nM; IC50 [16]: 9290 nM; IC50 [4, 25]: 1.7 nM; IC50 [6, 25]: 51 nM; IC50 [9, 25]: 863 nM; IC50 [17, 25]: 1050 nM
FIIFLFILL | 8980 |  | 10100 | 1050 | 953 | 627 | 450 |  | 900 | IC50 [23]: 3200 nM
FLFILLLCLI | 9730 |  |  | 1980 | 716 | 956 | 215 | 135 | 934 | IC50 [23]: 3690 nM; IC50 [17, 24]: 4500 nM
LVPFVQWFV | 69800 | ≥ 70000 |  | 71 |  |  | 1820 | 168 | 55 | IC50 [10]: ≥ 70000 nM; IC50 [17, 24]: 19 nM
MMWYWGPSL |  | ≥ 70000 |  | 54 |  | 137 | 131 |  |  | 
FLLSLGIHL |  | 15700 | 10500 |  | 2530 |  |  |  |  | IC50 [18]: 6790 nM
ILRGTSFVYV | ≥ 70000 | ≥ 70000 | 37200 | 2.2 | 4770 | 3.9 | 1360 |  | 83 | 
FIIFLFILLL | 7470 |  |  | 181 | 139 | 441 | 692 | 105 | 1420 | IC50 [23]: 3700 nM; IC50 [17, 24]: 737 nM
